Experimental data taken from US12352767B2, “Method of treating cognitive decline associated with neurological diseases based on a decrease in FLT4 expression or activity” (University of Virginia Patent Foundation, priority 2018, dated 2025).
Where a chain is given by its changes, count along the chain named. Names may count otherwise. “Also recorded” adds a separate entry of the source.

B1: VEGF-C: recombinant human VEGF-C (PeproTech) encapsulated in hyaluronic acid/methylcellulose hydrogel for transcranial delivery (protein, UniProt P49767 112-227, looked up)
Vascular endothelial growth …: AHYNTEILKSIDNEWRKTQCMPREVCIDVGKEFGVATNTFFKPPCVSVYRCGGCCNSEGLQCMNTSTSYLSKTLFEITVPLSQGPKPVTISFANHTSCRCMSKLDVYRQVHSIIRR
modifications: in hyaluronic acid/methylcellulose hydrogel
notes: recombinant human VEGF-C (PeproTech) encapsulated in hyaluronic acid/methylcellulose hydrogel for transcranial delivery
B2: VEGF-C156S: mutant VEGF-C protein that binds specifically to VEGFR3, delivered in hydrogel transcranially (protein, UniProt P49767 112-227, looked up, variant C156S)
Vascular endothelial growth …: B1 Vascular endothelial growth … with C45S
modifications: delivered in hydrogel

Tests used:
[1] = system: brain parenchyma; experiment: Brain perfusion/influx by CSF tracer OVA-A647 (brain sections); format: in vivo, mice; conditions: old mice
Description: (§1) Mice were anaesthetized by intraperitoneal (i.p.) injection of a mixed solution of ketamine (100 mg/Kg) and xylazine (10 mg/Kg) in saline. The skin of the neck was shaved and cleaned with iodine and 70% ethanol, ophthalmic solution placed on the eyes to prevent drying and the mouse's head was secured in a stereotaxic frame. After making a skin incision, the muscle layers were retracted and the cisterna magna exposed. Using a Hamilton syringe (coupled to a 33-gauge needle), the volume of the desired tracer solution was injected into the CSF-filled cisterna magna compartment. For brain CSF influx and lymphatic drainage experiments, 2 or 5 μL of Alexa Fluor® 594 or 647 conjugated OVA (Thermo Fisher Scientific), at 0.5 mg/mL in artificial CSF (#597316, Harvard Apparatus U.K.), were injected at a rate of 2.5 μL/min. After injecting, the syringe was left in place for additional 2 min to prevent back-flow of CSF.

[2] = system: meningeal lymphatic drainage; experiment: Drainage of CSF tracer (OVA-A647) into deep cervical lymph nodes; format: in vivo, mice
Description: as §1

[3] = system: meningeal lymphatic vessels; conditions: recombinant VEGF-C, previously shown (ref. 4); cited from earlier work
[4] = system: meningeal lymphatic vessels; experiment: Meningeal whole-mount immunostaining (LYVE-1/CD31): lymphatic vessel area and diameter, blood vessel coverage
Description: Selective ablation of the meningeal lymphatic vessels was achieved by i.c.m. injection and transcranial photoconversion of Visudyne® (verteporfin for injection, Valeant Ophtalmics). Visudyne was reconstituted following manufacturer instructions and 5 μL was injected i.c.m. following the previously described procedure. […] Each spot was irradiated with a light dose of 50 J/cm^2 at an intensity of 600 mW/cm^2 for a total of 83 s. Controls were injected with the same volume of Visudyne (without the photoconversion step) or sterile saline plus photoconversion (vehicle/photoconversion). The scalp skin was then sutured, the mice were subcutaneously injected with ketoprofen (2 mg/Kg) and allowed to recover on a heating pad until fully awake.
A hydrogel of 1.4% hyaluronic acid and 3% methylcellulose alone (vehicle) or with 200 ng/mL of encapsulated human VEGF-C (PeproTech) or VEGF-C156S (R&D Systems) was prepared as described elsewhere^49. Briefly, lyophilized, sterile methylcellulose (4000 cP, Sigma-Aldrich) and sterile hyaluronic acid (1500-1800 kDa, Sigma-Aldrich) were sequentially dissolved in sterile 0.1 M phosphate buffered saline (PBS) at 4° C. overnight. Lyophilized VEGF-C or VEGF-C156S were resuspended as particulate at 2000 ng/mL in 0.5% sterile methylcellulose in PBS. The particulate solution, or vehicle 0.5% methylcellulose, was mixed into the hydrogel pre-solution at 1:10, and loaded into a syringe for gelation at 37° C. […] The hydrogels were prepared on the day of the experiment and kept warm inside the individual syringes until applied onto the mouse's skull. […] An incision was made in the scalp skin and the skull was thinned at the junction of all sinuses and above the transverse sinus. The shear-thinning properties of the polymers allowed the extrusion of 100 μL of each hydrogel solution from the syringe into the thinned skull surface. The scalp skin was then sutured on top of the solidified hydrogel, the mice were subcutaneously injected with ketoprofen (2 mg/Kg) and allowed to recover on a heating pad until fully awake.
Mice were given a lethal dose of anesthetics by intraperitoneal (i.p.) injection of Euthasol (10% v/v in saline). When needed, CSF was collected from the cisterna magna using a 0.5 mm diameter borosilicate glass pipette with internal filament and immediately stored at −80° C. Mice were then transcardially perfused with ice cold PBS with heparin (10 U/mL). Deep cervical lymph nodes were dissected and drop fixed in 4% paraformaldehyde (PFA) for 12 hours at 4° C. After stripping the skin and muscle from the bone the head was collected and drop fixed in 4% PFA. […] The brains were kept in 4% PFA for additional 24 hours (48 hours in total). […]

[5] = molecular target: VEGFR3 (Homo sapiens, UniProt P35916); conditions: VEGFR3 vs VEGFR2 (refs. 34, 36); cited from earlier work
VEGFR3, sequence (P35916 25-1363, species assumed): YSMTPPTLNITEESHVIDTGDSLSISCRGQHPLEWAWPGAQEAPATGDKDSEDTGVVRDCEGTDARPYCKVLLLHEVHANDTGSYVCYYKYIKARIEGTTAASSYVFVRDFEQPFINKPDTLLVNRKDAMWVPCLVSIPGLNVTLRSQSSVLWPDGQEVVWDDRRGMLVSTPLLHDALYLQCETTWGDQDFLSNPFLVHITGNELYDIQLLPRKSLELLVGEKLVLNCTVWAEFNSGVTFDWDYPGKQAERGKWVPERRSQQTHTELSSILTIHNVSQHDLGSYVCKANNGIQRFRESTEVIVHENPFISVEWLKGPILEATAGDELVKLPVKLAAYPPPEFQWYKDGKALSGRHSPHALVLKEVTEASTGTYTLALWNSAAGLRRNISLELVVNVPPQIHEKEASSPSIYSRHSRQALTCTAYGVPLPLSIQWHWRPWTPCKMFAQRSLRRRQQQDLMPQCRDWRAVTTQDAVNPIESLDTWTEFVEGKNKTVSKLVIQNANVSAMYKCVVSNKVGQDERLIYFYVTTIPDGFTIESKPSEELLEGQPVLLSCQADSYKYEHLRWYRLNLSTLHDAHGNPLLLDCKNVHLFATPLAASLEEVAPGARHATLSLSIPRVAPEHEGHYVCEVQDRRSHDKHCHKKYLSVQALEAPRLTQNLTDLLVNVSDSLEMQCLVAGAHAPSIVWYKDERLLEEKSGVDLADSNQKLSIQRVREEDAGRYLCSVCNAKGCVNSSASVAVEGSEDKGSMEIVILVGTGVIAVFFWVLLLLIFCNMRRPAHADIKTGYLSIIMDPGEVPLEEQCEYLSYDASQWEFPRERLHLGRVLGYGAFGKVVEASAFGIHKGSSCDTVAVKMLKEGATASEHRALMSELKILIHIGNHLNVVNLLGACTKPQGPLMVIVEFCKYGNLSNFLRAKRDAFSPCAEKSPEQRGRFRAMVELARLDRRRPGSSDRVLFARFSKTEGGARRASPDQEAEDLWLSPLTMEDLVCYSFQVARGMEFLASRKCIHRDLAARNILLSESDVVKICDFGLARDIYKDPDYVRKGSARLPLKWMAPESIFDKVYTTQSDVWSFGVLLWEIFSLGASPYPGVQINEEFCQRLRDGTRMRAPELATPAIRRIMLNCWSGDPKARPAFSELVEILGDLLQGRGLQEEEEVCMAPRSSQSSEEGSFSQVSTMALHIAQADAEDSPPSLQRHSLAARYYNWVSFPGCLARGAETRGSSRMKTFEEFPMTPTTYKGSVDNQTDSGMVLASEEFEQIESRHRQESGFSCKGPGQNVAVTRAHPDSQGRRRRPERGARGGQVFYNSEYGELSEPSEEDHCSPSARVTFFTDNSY

| Molecule | brain perfusion by CSF macromolecules (OVA-A647 influx) ([1]; transcranial hydrogel VEGF-C) | meningeal lymphatic function (OVA-A647 drainage into dCLNs) ([2]; old mice, transcranial hydrogel VEGF-C vs vehicle) | meningeal lymphatic function (OVA-A647 drainage into dCLNs) ([2]; young-adult mice, transcranial hydrogel VEGF-C) | diameter of meningeal lymphatic vessels [3] | meningeal lymphatic vessel diameter (superior sagittal sinus) ([4]; young/adult (3 months) and old (20-24 months) mice, hydrogel VEGF-C 200 ng/mL transcranial, 4 weeks, vs vehicle) | receptor binding specificity [5] | paravascular influx of tracer into the brain (OVA-A647 area fraction) ([1]; transcranial VEGF-C156S) | drainage of tracer from the CSF (OVA-A647 area fraction in dCLNs) ([2]; old mice, transcranial VEGF-C156S vs vehicle) | meningeal lymphatic diameter (LYVE-1+ vessels, superior sagittal sinus) ([4]; old mice, hydrogel VEGF-C156S 200 ng/mL transcranial vs vehicle) |
| --- | --- | --- | --- | --- | --- | --- | --- | --- | --- |
| B1 | enhanced brain perfusion; also recorded: significantly increased | significant increase; also recorded: increased drainage | did not respond | increases the diameter | increased diameter; also recorded: significant increase | – | – | – | – |
| B2 | – | – | – | – | – | binds specifically to VEGFR3 and spares its effects on VEGFR2 | significant increase | significant increase | significant increase; also recorded: increased diameter |
